{
  "source": "patent US5444151A",
  "about": "“Platelet derived growth factor antagonists” (Ludwig Institute for Cancer Research, priority 1992, dated 1995)",
  "tested_on": "human foreskin fibroblasts",
  "test": "Ligand stimulated [3H]thymidine incorporation",
  "format": "cell-based",
  "text": "The possible role of peptide 16T as an antagonist for PDGF activity in vivo was investigated. Following the methodology of Betsholtz et al., J. Cell Physiol 118: 203-210 (1984), the disclosure of which is incorporated by reference, [^3 H] thymidine incorporation by human fibroblasts in the presence of various peptides was studied.",
  "data": [
    {"molecule": "PDGF-BB: platelet derived growth factor B chain homodimer (protein, UniProt P01127 82-190, looked up) Platelet-derived growth …: SLGSLTIAEPAMIAECKTRTEVFEISRRLIDRTNANFLVWPPCVEVQRCSGCCNNRNVQCRPTQVQLRPVQVRKIEIVRKKPIFKKATVTLEDHLACKCETVAAARPVT", "values": [
      {"measurement": "[3H]thymidine incorporation, ligand alone", "setting": "no peptide (unstimulated control 483 cpm), mean of duplicates", "value": 1918, "unit": "cpm"},
      {"measurement": "Stimulation of [3H]thymidine incorporation by ligand", "setting": "no peptide, versus unstimulated control", "value": 4, "unit": "fold"}
    ]}
  ]
}
